Assay results reported in patent US12297272B2, “IgG Fc variants for veterinary use” (Elanco US Inc., priority 2017, dated 2025).
Residue numbers refer to the chain shown, from its start.

B1: GLP1-G8_I_WTfeIgG2: Formula I contiguous polypeptide: GLP1-G8 (7-35), flexible linker, wildtype feline IgG2 Fc (protein)
chain: HGEGTFTSDVSSYLEGQAAKEFIAWLVKGGGGSGGGGSGGGGSGGGGSPKTASTIESKTGEGPKCPVPEIPGAPSVFIFPPKPKDTLSISRTPEVTCLVVDLGPDDSNVQITWFVDNTEMHTAKTRPREEQFNSTYRVVSVLPILHQDWLKGKEFKCKVNSKSLPSAMERTISKAKGQPHEPQVYVLPPTQEELSENKVSVTCLIKGFHPPDIAVEWEITGQPEPENNYQTTPPQLDSDGTYFLYSRLSVDRSHWQRGNTYTCSVSHEALHSHHTQKSLTQSPGK
modifications: Synthetic GLP1-G8_I_WTfeIgG2
notes: Formula I contiguous polypeptide: GLP1-G8 (7-35), flexible linker, wildtype feline IgG2 Fc
B2: GLP1-G8/GLP1-2G_III_VARfeIgG2: Formula III GLP1 contiguous polypeptide comprising variant feline IgG2 Fc of SEQ ID NO: 17 (Gly to Cys at position 14) (protein)
chain: HGEGTFTSDVSSYLEGQAAKEFIAWLVKGGGGSGGGGSGGGGSGGGGSPKTASTIESKTGECPKCPVPEIPGAPSVFIFPPKPKDTLSISRTPEVTCLVVDLGPDDSNVQITWFVDNTEMHTAKTRPREEQFNSTYRVVSVLPILHQDWLKGKEFKCKVNSKSLPSAMERTISKAKGQPHEPQVYVLPPTQEELSENKVSVTCLIKGFHPPDIAVEWEITGQPEPENNYQTTPPQLDSDGTYFLYSRLSVDRSHWQRGNTYTCSVSHEALHSHHTQKSLTQSPGKGGGGSGGGGHAEGTFTSDVSSYLEGQAAKEFIAWLVKGGG
modifications: Synthetic GLP1-G8/GLP1-2G_III_ VARfeIgG2
B3: GLP1-G8/GLP1-2G_III_WTfeIgG2: Formula III contiguous polypeptide: GLP1-G8 (7-35), GLP1 (7-35), two flexible linkers, 2G C-terminal extension, wildtype feline IgG2 Fc (protein)
chain: B2 chain with C62G
modifications: Synthetic GLP1-G8/GLP-2G_III_ WTfeIgG2
notes: Formula III contiguous polypeptide: GLP1-G8 (7-35), GLP1 (7-35), two flexible linkers, 2G C-terminal extension, wildtype feline IgG2 Fc
B4: feline IgG2 Fc: wild-type feline IgG2 Fc polypeptide (protein)
chain: PKTASTIESKTGEGPKCPVPEIPGAPSVFIFPPKPKDTLSISRTPEVTCLVVDLGPDDSNVQITWFVDNTEMHTAKTRPREEQFNSTYRVVSVLPILHQDWLKGKEFKCKVNSKSLPSAMERTISKAKGQPHEPQVYVLPPTQEELSENKVSVTCLIKGFHPPDIAVEWEITGQPEPENNYQTTPPQLDSDGTYFLYSRLSVDRSHWQRGNTYTCSVSHEALHSHHTQKSLTQSPGK
modifications: Wild-type feline IgG2 Fc, Protein A +, C1q -
notes: wild-type feline IgG2 Fc polypeptide
B5: canine IgG-B Fc: wild-type canine IgG-B Fc polypeptide (protein)
chain: PAPEMLGGPSVFIFPPKPKDTLLIARTPEVTCVVVDLDPEDPEVQISWFVDGKQMQTAKTQPREEQFNGTYRVVSVLPIGHQDWLKGKQFTCKVNNKALPSPIERTISKARGQAHQPSVYVLPPSREELSKNTVSLTCLIKDFFPPDIDVEWQSNGQQEPESKYRTTPPQLDEDGSYFLYSKLSVDKSRWQRGDTFICAVMHEALHNHYTQESLSHSPGK
modifications: Wild-type canine IgG-B Fc , Protein A +, C1q +, CD16 +
notes: wild-type canine IgG-B Fc polypeptide

What was measured:
[1] = Differential scanning fluorimetry, stability at various pH; format: physicochemical; conditions: n = 3, 10 μg construct
Source text: Furthermore, differential scanning fluorimetry was used to assess the stability of the contiguous polypeptides at various pH, as reflected by mean melting point temperature (n=3) (Table 9, below). The increased stability of the variant feline IgG2 hinge is most evident at pH 6.

Protein A = Protein A (Staphylococcus aureus, UniProt P38507)
Procedure: In some embodiments, the KD of an IgG Fc polypeptide, such as a variant IgG Fc polypeptide, to Protein A or to C1q or to CD16 is measured by using biolayer interferometry assays using a biosensor, such as an Octet® System (Pall ForteBio LLC, Fremont, CA) according to the supplier's instructions. In brief, biotinylated Protein A or C1q or CD16 is bound to the sensor tip and the association of IgG Fc polypeptide is monitored for a specified time or until steady state is reached. Dissociation may be monitored for a specified time or until steady state is reached. A buffer only blank curve is subtracted to correct for any drift. The data are fit to a 2:1 binding model using ForteBio data analysis software to determine association rate constant (kon), dissociation rate constant (koff), and the Kd. The equilibrium dissociation constant (KD) is calculated as the ratio of koff/kon. The term “kon” refers to the rate constant for association of a molecule X to its partner Y and the term “koff” refers to the rate constant for dissociation of a molecule X or partner Y from the molecule X/partner Y complex.
Binding analysis may be performed using an Octet biosensor. Briefly, the target molecule (e.g., Protein A, C1q, CD16, etc.) may be biotinylated and free unreacted biotin removed (e.g., by dialysis). The biotinylated target molecule is captured on streptavidin sensor tips. Association of the target molecule with various concentrations (e.g., 10 μg/mL) of IgG Fc polypeptide is monitored for a specified time or until steady state is reached. Dissociation is monitored for a specified time or until steady state is reached. A buffer only blank curve may be subtracted to correct for any drift. The data are fit to a 1:1 binding model using ForteBio™ data analysis software to determine the kon, koff, and the Kd.

C1q = C1q (Homo sapiens, UniProt P02745+P02746+P02747); test: C1q binding of IgG Fc polypeptides (Octet biolayer interferometry described); as to C1q binding: key: (−) denotes low or no measurable binding activity
Source text: (§1) Binding analysis may be performed using an Octet biosensor.

CD16 = CD16 (Homo sapiens, UniProt P08637); test: CD16 binding of IgG Fc polypeptides (Octet biolayer interferometry described)
Source text: as §1

Chain of C1q (P02745 23-245): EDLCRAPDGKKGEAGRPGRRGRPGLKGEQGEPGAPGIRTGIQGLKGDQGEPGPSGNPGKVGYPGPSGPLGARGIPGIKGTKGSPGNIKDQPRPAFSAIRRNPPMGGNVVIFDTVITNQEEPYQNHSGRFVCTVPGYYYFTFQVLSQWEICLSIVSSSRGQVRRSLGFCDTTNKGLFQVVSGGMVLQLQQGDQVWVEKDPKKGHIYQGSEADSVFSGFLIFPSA
Chain of C1q (P02746 28-253): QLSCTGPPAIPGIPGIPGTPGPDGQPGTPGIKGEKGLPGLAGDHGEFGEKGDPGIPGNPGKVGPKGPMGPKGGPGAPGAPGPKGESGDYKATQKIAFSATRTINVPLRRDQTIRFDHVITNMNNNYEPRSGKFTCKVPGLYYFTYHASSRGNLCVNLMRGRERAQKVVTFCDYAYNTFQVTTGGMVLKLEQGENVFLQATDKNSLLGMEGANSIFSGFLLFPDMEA
Chain of C1q (P02747 29-245): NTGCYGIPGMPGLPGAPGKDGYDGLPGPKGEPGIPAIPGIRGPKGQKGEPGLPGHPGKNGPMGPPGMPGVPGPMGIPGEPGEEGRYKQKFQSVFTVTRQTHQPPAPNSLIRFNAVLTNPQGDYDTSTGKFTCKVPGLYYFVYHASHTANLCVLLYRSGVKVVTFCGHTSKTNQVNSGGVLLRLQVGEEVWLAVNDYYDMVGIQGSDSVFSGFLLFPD
Chain of CD16 (P08637 17-254): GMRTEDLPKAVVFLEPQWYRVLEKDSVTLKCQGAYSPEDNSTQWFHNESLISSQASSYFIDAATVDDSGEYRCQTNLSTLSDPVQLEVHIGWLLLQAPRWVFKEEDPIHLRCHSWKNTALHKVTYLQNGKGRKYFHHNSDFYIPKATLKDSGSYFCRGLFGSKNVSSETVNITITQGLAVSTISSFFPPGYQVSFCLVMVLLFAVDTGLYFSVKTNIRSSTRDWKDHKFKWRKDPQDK

Molecule | Mean Melting Point Temperature (Tm) ([1]; pH 5) [°C] | Mean Melting Point Temperature (Tm) ([1]; pH 6) [°C] | Mean Melting Point Temperature (Tm) ([1]; pH 7) [°C] | Mean Melting Point Temperature (Tm) ([1]; pH 8) [°C] | Protein A binding affinity (Protein A) | binding affinity to C1q (C1q) | C1q Binding (C1q; Wild-type Feline IgG Fc) | CD16 binding activity (CD16)
B1 | 48.5 | 56.9 | 59.9 | 59 |  |  |  | 
B2 |  | 56.9 | 55 | 52.5 |  |  |  | 
B3 |  | 55.2 | 55.7 | 54.2 |  |  |  | 
B4 |  |  |  |  | have Protein A binding affinity | weak or no measurable binding affinity to C1q | − | 
B5 |  |  |  |  | has Protein A binding affinity | bind to C1q |  | have CD16 binding activity
